According to patent US20220023386A1, “METHOD FOR THE TREATMENT OR PREVENTION OF OSTEOARTHRITIS” (Chondropeptix B.V., priority 2016, published 2022):

Experiments:
[1] = test system: OA articular chondrocytes; assay: Expression of OA chondrocyte phenotype marker genes by RT-qPCR after peptide exposure; format: cell-based, human; details: independent of the tested concentration (1000, 100, 10 and 1 nM were tested)
[2] = test system: Synovial tissue, Hoffa's fat pad tissue and meniscus tissue samples from OA patients; assay: PGE2 levels via ELISA in synovial, Hoffa's fat pad and meniscus tissue samples; format: cell-based, human; details: 24 h; BMP-7 1 nM, peptides 10 nM
Procedure: Synovial tissue samples from OA patients (n=6) were treated with BMP-7 (1 nM), with peptide […] (SEQ ID NO: 8) at 10 nM or a scrambled irrelevant control peptide (10 nM) for 24 h. PGE2 levels were determined via an ELISA.
Hoffa's fat pad tissue samples from OA patients (n=6) were treated with BMP-7 (1 nM) with peptide […] (SEQ ID NO: 8) at 10 nM or a scrambled irrelevant control peptide (10 nM) for 24 h. PGE2 levels were determined via an ELISA.
Meniscus tissue samples from OA patients (n=6) were treated with BMP-7 (1 nM) with peptide […] (SEQ ID NO: 8) at 10 nM or a scrambled irrelevant control peptide (10 nM) for 24 h. PGE2 levels were determined via an ELISA.

[3] = test system: Cartilage explants from OA patient's knee cartilage; assay: PGE2 levels via ELISA in cartilage explants; format: cell-based, human; details: 14 days; BMP-7 1 nM, peptides 10 nM
Procedure: Cartilage explants of 3 mm^2 were taken from OA patient's knee cartilage (n=6) and treated with BMP-7 (1 nM), with peptide […] (SEQ ID NO: 8) at 10 nM or a scrambled irrelevant control peptide (10 nM) for 14 days. Prostaglandin E2 (PGE2) levels, a pro-hypertrophic factor, were determined via an ELISA.

Cartilage explants = assay: Safranin-O staining of glycosaminoglycans in cartilage explants; format: cell-based, human; details: 14 days; BMP-7 1 nM, SEQ ID NO: 8 10 nM; 2 patients
Procedure: Cartilage explants obtained from 2 patients were cultured for 14 days in the presence of BMP-7 (1 nM) or BMP-7 mimicking peptide […] (SEQ ID NO: 8) at 10 nM. Glycosaminoglycans (GAGs), an important component of the extracellular matrix (ECM), were stained with Safranin-O (in red) and other tissues are counterstained with Fast green (in green/blue).

[4] = test system: cartilage explants from OA patient's knee articular cartilage; assay: Treatment of cartilage explants, hypertrophic gene expression via qRT-PCR; format: cell-based, human; details: BMP-7 1 nM, SEQ ID NO: 16 10 nM, 24 h
Procedure: 4 mm2 cartilage explants were taken from non-lesion areas of OA patient's knee articular cartilage (n=5) and randomly assigned to different experimental treatment conditions (4 explants per treatment group). After a 24 h equilibration period the explants were treated with BMP-7 (1 nM) or the 12-mer peptide according to SEQ ID NO: 16 (10 nM) for 24 h. Hypertrophic gene expression was determined via qRT-PCR and normalized for 28S rRNA levels. After treatment with BMP-7 or the 12 mer we observed a downregulation of pro-hypertrophic genes, such as Col10a1 (FIG. 10A) and MMP13 (FIG. 10B).

[5] = test system: Osteoarthritic chondrocytes; assay: BMP-7 rescue of OA-associated chondrocyte phenotype (FIG. 1); format: cell-based
Procedure: Osteoarthritic chondrocytes display a typical phenotype that is characterized by decreased expression of SOX9, COL2A1, ACAN and BAPX1/NKX3.2 and an increased expression of RUNX2, COL10A1, ALP, MMP13, ADAMTSS, COX-2 and IL-6 mRNAs (see left panel).
Functional ALP enzyme activity in cell lysates and PGE2 secretion in the culture medium was also normalized upon BMP-7 treatment of OA chondrocytes (right panel).
Expression of indicated mRNAs was determined by RT-qPCR, relatively to control conditions (normalized for 28S rRNA expression). In graphs, error bars represent mean±SEM, statistical differences were calculated as compared to healthy condition. *=p<0.05.

OA patients = details: intra-articular injection, phase-1; cited from earlier work
[6] = test system: Isolated chondrocytes from OA patients; assay: Treatment of isolated chondrocytes from OA patients, gene expression via qRT-PCR; format: cell-based, human; details: 1 nM, 24 h, n=6
Procedure: Isolated chondrocytes from OA patients (n=6) were treated with BMP-7 (1 nM) or the 12-mer peptide according to SEQ ID NO: 16 (1 nM) for 24 h. Pro-chondrogenic (FIG. 9A) and hypertrophic (FIGS. 9B, 9C and 9D) gene expression was determined via qRT-PCR and normalized for 28S rRNA levels.

OA = details: intra-articular administration, rats; cited from earlier work
[7] = BMP-7 treatment of OA chondrocytes

Molecule | suppression of the OA chondrocyte phenotype [1] | PGE2 levels in the surrounding tissues (synovial, Hoffa's fat pad, meniscus) [2] | PGE2 levels in the cartilage [3] | Safranin-O intensity (GAGs) compared to control (Cartilage explants) | Col10a1 gene expression [4] | MMP13 gene expression [4] | concentration at which OA chondrocyte-phenotype suppressive action is most pronounced [5] | OA-associated chondrocyte phenotype (expression of SOX9, COL2A1, ACAN, BAPX1/NKX3.2, RUNX2, COL10A1, ALP, MMP13, ADAMTS5, COX-2, IL-6 mRNAs) ([5]; BMP-7 1 nM) | effects on the chondrocyte phenotype at high concentration ([5]; BMP-7 concentrations higher than 1 nM (eg 10 nM or 100 nM)) | Functional ALP enzyme activity in cell lysates [5, 7] | PGE2 secretion in the culture medium [5, 7] | adverse events (OA patients) | COL10A1 gene expression (pro-hypertrophic) [6] | COX-2 gene expression (pro-hypertrophic) [6] | Col2a1 gene expression (pro-chondrogenic) [6] | RUNX2 gene expression (pro-hypertrophic) [6] | OA development and progression (OA)
GYAAYYSEGESAFPLNSYMN (homo sapiens) [SEQ ID NO: 8] | efficiently suppressed | reduce PGE2 levels | reduce PGE2 levels | increased Safranin-O intensity | – | – | – | – | – | – | – | – | – | – | – | – | –
bone morphogenetic protein-7 (protein, homo sapiens, full-length recombinant human BMP-7, mature polypeptide of 139 amino acids) STGSKQRSQNRSKTPKNQEALRMANVAENSSSDQRQACKKHELYVSFRDLGWQDWIIAPEGYAAYYCEGECAFPLNSYMNATNHAIVQTLVHFINPETVPKPCCAPTQLNAISVLYFDDSSNVILKKYRNMVVRACGCH | – | reduce PGE2 levels | reduce PGE2 levels | increased Safranin-O intensity | downregulation | downregulation | around 1 nM | able to rescue | opposite and negative effects | normalized | normalized | no serious adverse events | downregulation | downregulation | upregulation | downregulation | protects against OA development and delays progression of OA
